These results are taken from patent publication US20170189505A1.

This test addresses HLA-A*24 (human). As to the kind of experiment: UV peptide exchange, anti-b2m ELISA.
Turning to TYLRDQHFL [SEQ ID No 187 peptide …], the peptide exchange yield is above 75%.
For VYGFQWRHF [SEQ ID No 276 peptide …] the value was above 75%; for VFQNFPLLF [SEQ ID No 184 peptide …], above 75%; for QYLENLEKL [SEQ ID No 224 peptide …], 50 to 75%.
For EYINQGDLHEF [SEQ ID No 275 peptide …] the value was 50 to 75%; for IYDDSFIRPVTF [SEQ ID No 180 peptide …], 50 to 75%.
To VYPWLGALL [SEQ ID No 177 peptide …] belongs above 75%; to IYTMIYRNL [SEQ ID No 210 peptide …], above 75%.
The molecule RYPDNLKHLYL [SEQ ID No 280 peptide …] registered a peptide exchange yield above 75%.
To IFIEVFSHF [SEQ ID No 178 peptide …] belongs 50 to 75%; to TYTQDFNKF [SEQ ID No 208 peptide …], 50 to 75%.
To LYLDIINLF [SEQ ID No 181 peptide …] belongs above 75%.
In turn, FFPPTRQMGLLF [SEQ ID No 217 peptide …] returned a peptide exchange yield above 75%.
To VYRDETGELF [SEQ ID No 226 peptide …] belongs 50 to 75%.
For IYQLDTASI [SEQ ID No 182 peptide …] the value was 50 to 75%; for KFVDSTFYL [SEQ ID No 282 peptide …], above 75%; for IFLDYEAGTLSF [SEQ ID No 227 peptide …], above 75%.
To RFHPTPLLL [SEQ ID No 193 peptide …] belongs above 75%; to KYMVYPQTF [SEQ ID No 267 peptide …], above 75%.
For the molecule FYSRLLQKF [SEQ ID No 203 peptide …], the peptide exchange yield is 50 to 75%.
For VHIPEVYLI [SEQ ID No 205 peptide …] the value was 50 to 75%; for TYIESASEL [SEQ ID No 279 peptide …], 50 to 75%; for IYKVGAPTI [SEQ ID No 185 peptide …], 50 to 75%.
For LYLKLWNLI [SEQ ID No 214 peptide …] the value was 50 to 75%; for MYDSYWRQF [SEQ ID No 179 peptide …], above 75%; for YYLEVGKTLI [SEQ ID No 211 peptide …], above 75%.
To AYLHSHALI [SEQ ID No 274 peptide …] belongs above 75%; to RYFKGLVF [SEQ ID No 188 peptide RYFKGLVF], 50 to 75%.
As for VFKASKITF [SEQ ID No 191 peptide …], the peptide exchange yield was in the range of 50 to 75%.
For YFDKVVTL [SEQ ID No 215 peptide YFDKVVTL] the value was 20 to 49%; for KYIPYKYVI [SEQ ID No 223 peptide …], 50 to 75%.
In turn, IFPQFLYQF [SEQ ID No 186 peptide …] registered a peptide exchange yield above 75%.
Take KYTSWYVAL [SEQ ID No 228 peptide …]: the peptide exchange yield was above 75%.
For TYIKPISKL [SEQ ID No 273 peptide …] the value was 50 to 75%; for YYVYIMNHL [SEQ ID No 225 peptide …], 50 to 75%.
LYHDIFSRL [SEQ ID No 271 peptide …]: the peptide exchange yield is above 75%.
To SYALLTYMI [SEQ ID No 192 peptide …] belongs above 75%.
To EYQENFLSF [SEQ ID No 206 peptide …] belongs 50 to 75%.
To LYLDKATLI [SEQ ID No 198 peptide …] belongs 50 to 75%; to RYSTGLAGNLL [SEQ ID No 221 peptide …], 50 to 75%.
Take QYSSVFKSL [SEQ ID No 216 peptide …]: the peptide exchange yield is above 75%.
To VFTSTARAF [SEQ ID No 183 peptide …] belongs 50 to 75%; to RYISDQLFTNF [SEQ ID No 278 peptide …], above 75%.
Regarding EYPLVINTL [SEQ ID No 219 peptide …], the peptide exchange yield lay within 50 to 75%.
EFGSLHLEFL [SEQ ID No 194 peptide …] yielded a peptide exchange yield below 20%.
For GFFIFNERF [SEQ ID No 190 peptide …] the value was 50 to 75%; for WYVNGVNYF [SEQ ID No 189 peptide …], 20 to 49%; for TYTTVPRVAF [SEQ ID No 172 peptide …], above 75%.
To QYLQDAYSF [SEQ ID No 272 peptide …] belongs above 75%.
